{
  "source": "patent US20260210971A1",
  "about": "(Pfizer, published 2026)",
  "key": {"[1]": {"molecular_target": "T1, recombinant soluble rabbit TL1A (rabbit)", "T1 construct": "also called rabbit rsTL1A", "T1 chain": "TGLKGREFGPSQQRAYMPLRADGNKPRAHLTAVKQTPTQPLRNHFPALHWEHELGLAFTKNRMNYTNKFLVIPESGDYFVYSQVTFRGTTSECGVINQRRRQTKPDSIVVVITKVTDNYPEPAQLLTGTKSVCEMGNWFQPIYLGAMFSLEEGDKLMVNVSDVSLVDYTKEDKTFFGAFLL", "experiment": "SPR, IgG captured on anti-hIgG, TL1A injected", "text": "(§1) The antibodies were captured via directly immobilized anti-human IgG (GE Healthcare) onto a carboxymethylated dextran sensor chip surface (CM5) using a Biacore T100 or T200 instrument. Anti-human IgG was immobilized through amine coupling to densities of approximately 4,000-13,000 response units (RU). […] At the end of each cycle, the entire anti-hIgG surface was regenerated by a 30-second pulse of 3M MgCl₂ followed by two consecutive 15-second pulses of PBS-NET. […] All injections were performed at 25° C. at a collection rate of 10 Hz. All sensorgrams were double referenced by using both a control surface and buffer injections. Rate constants were determined by fitting the data to a 1:1 model in Biacore T100, T200 evaluation software v1.0, or BIAevaluation software v4.1.1 and the equation KD=Kd/kₐ.\n(§2) At the highest cytokine concentrations, the dissociation phase was sometimes extended to 60 minutes to achieve at least a 5% decrease in binding signal."}, "[2]": {"molecular_target": "T2, recombinant soluble rat TL1A (rat, UniProt Q8K3Y7 76-252)", "T2 construct": "also called rat rsTL1A", "T2 sequence": "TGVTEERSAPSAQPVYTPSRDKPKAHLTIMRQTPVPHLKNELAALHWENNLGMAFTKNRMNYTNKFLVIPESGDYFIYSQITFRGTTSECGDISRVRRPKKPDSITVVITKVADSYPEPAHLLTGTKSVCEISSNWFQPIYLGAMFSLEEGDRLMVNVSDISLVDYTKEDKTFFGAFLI", "experiment": "SPR, IgG captured on anti-hIgG, TL1A injected", "text": "as §1, §2"}, "[3]": {"molecular_target": "T3, recombinant soluble human TL1A (human, UniProt O95150 71-251)", "T3 construct": "Homotrimer, expressed in HEK293 and purified over HitrapNTA; no tag is described; Used biotinylated in the HTRF assay and in flow cytometry; also called rsTL1A; hTL1A", "T3 sequence": "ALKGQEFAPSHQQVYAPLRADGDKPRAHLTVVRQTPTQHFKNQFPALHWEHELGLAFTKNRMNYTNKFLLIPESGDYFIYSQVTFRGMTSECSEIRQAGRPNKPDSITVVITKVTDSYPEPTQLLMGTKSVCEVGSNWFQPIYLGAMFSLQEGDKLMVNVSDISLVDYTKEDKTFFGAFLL", "experiment": "plate ELISA, TL1A coated, antibody titrated; plate of TNFSF6; plate of TNFSF6", "experimental": "(§3) The first 6 rows of each plate were coated with the test article cytokine, and the last two rows were coated with TL1A as a positive control. Rows 1 and 2 were duplicate rows where the test article cytokine was tested for binding to increasing concentrations of its corresponding anti-cytokine positive control antibody. […] The experiment for each cytokine was repeated three times.\n(§4) Plates were incubated overnight at 4° C. After washing the plates three times (3×) with 300 μL PBST using a plate washer (model ELx405; BioTek), plates were blocked by incubating for 1 hour at room temperature with 300 μL of blocking buffer (PBST+0.5% BSA) in each well. […] Plates were then washed 5 times with PBST using the plate washer."}, "[4]": {"molecular_target": "T3, recombinant soluble human TL1A", "experiment": "SPR, IgG captured on anti-hIgG, TL1A injected; off rate too slow to measure"}, "[5]": {"molecular_target": "T4, endogenous TL1A of stimulated cynomolgus monkey peripheral blood (cynomolgus monkey, UniProt G7PRK8 72-251)", "T4 construct": "also called sTL1A (cynomolgus)", "T4 sequence": "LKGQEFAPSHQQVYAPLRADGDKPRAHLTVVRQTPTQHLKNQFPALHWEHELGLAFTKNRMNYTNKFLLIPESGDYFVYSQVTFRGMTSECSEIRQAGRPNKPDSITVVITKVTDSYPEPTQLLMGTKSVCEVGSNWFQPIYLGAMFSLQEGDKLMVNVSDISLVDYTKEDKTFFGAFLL", "experiment": "MSD ligand-binding assay of 1D1 1.31-free soluble TL1A in plasma of cynomolgus whole blood stimulated 24 h with immune complex + IL-12/IL-18 (representative experiment)", "experimental": "Controls included stimulation without antibody as well as no, or single stimulation controls (only IC or only IL-12/IL-18) in triplicate. After 24 hours of culture at 37° C., 200 μL of 5% bovine serum albumin in PBS were added and mixed well with the 100 μL of blood cultures to dilute plasma (dilution factor: 3). […] IFNγ was measured using the MSD human IFNγ kit (Catalog No. K151AEB-1) following the manufacturer's instructions. […] The following day, plates were washed three times with 150 μL per well of 0.1% Tween 20 in PBS, followed with 150 μL per well of blocking solution (5% bovine serum albumin in PBS), then the plates were incubated at room temperature for 1 hour with orbital shaking (1500 rpm). […] Plates were incubated at room temperature for 2 hours with orbital shaking (1500 rpm) followed by the same plate wash protocol mentioned above. TL1A standard curves were generated using recombinant cynomolgus monkey soluble TL1A. Plates were read following the manufacturer's procedure, standard curve and plasma concentration of the cytokine were calculated using the MSD software per manufacturer's instructions."}, "[6]": {"molecular_target": "T3, recombinant soluble human TL1A", "experiment": "plate ELISA, TL1A coated, antibody titrated; plate of TNF α", "experimental": "as §3, §4"}, "human TNFSF10 (TRAIL)": {"molecular_target": "human TNFSF10 (TRAIL) (human, UniProt P50591 114-281)", "sequence (P50591 114-281 limits assumed)": "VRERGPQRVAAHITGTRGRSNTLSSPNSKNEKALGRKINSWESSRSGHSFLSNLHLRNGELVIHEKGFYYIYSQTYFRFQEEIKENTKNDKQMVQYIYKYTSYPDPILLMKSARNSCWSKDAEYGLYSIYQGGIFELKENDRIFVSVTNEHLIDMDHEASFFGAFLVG", "experiment": "plate ELISA, cytokine coated", "experimental": "as §3, §4"}, "human TNFSF14 (LIGHT)": {"molecular_target": "human TNFSF14 (LIGHT) (human, UniProt O43557 74-240, limits assumed)", "sequence (O43557 74-240 limits assumed)": "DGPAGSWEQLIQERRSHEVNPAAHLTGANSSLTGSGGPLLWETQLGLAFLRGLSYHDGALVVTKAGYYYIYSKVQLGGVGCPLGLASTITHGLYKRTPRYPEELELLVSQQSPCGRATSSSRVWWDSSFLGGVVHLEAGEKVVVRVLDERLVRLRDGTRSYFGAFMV", "experiment": "plate ELISA, cytokine coated", "experimental": "as §3, §4"}, "human Lymphotoxin α1-β2": {"molecular_target": "T5, human Lymphotoxin α1-β2 (human, UniProt P01374 35-205; Q06643 49-244, limits assumed)", "T5 construct": "Copies read from the name α1-β2; also called Lymβ 2", "T5 sequence (looked up) 1": "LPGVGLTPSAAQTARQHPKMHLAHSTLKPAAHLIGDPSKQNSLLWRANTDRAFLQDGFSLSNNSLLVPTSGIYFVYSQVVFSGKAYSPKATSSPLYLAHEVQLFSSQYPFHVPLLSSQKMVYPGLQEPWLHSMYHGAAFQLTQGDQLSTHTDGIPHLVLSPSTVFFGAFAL", "T5 sequence (looked up) 2": "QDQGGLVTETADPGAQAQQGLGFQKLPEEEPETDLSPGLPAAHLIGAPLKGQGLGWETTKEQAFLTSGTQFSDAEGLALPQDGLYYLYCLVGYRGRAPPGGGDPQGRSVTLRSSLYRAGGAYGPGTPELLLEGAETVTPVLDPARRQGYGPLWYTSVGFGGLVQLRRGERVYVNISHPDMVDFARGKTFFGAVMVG", "experiment": "plate ELISA, cytokine coated", "experimental": "as §3, §4"}, "human Lymphotoxin α2-β1": {"molecular_target": "T6, human Lymphotoxin α2-β1 (human, UniProt P01374 35-205; Q06643 49-244, limits assumed)", "T6 construct": "Copies read from the name α2-β1; also called Lymβ 1", "T6 sequence (looked up) 1": "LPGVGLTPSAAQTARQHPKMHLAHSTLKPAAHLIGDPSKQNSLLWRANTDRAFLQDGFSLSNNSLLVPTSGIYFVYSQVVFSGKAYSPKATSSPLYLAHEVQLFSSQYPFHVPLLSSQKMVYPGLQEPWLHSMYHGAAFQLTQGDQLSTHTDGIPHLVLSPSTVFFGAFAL", "T6 sequence (looked up) 2": "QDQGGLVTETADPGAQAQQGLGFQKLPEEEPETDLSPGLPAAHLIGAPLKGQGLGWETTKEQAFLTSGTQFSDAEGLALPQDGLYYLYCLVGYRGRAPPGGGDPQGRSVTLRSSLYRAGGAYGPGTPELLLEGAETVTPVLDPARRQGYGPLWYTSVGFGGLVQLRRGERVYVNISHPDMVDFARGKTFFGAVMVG", "experiment": "plate ELISA, cytokine coated", "experimental": "as §3, §4"}, "human TNF-α": {"molecular_target": "T7, human TNF-α (human, UniProt P01375 77-233)", "T7 construct": "also called TNF alpha", "T7 sequence (P01375 77-233 limits assumed)": "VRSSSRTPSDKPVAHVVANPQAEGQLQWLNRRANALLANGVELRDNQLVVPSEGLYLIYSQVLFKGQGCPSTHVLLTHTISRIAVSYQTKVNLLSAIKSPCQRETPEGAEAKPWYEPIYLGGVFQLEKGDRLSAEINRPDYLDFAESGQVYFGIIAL", "experiment": "plate ELISA, cytokine coated", "experimental": "as §3, §4"}, "human TNF-β": {"molecular_target": "T8, human TNF-β (human, UniProt P01374 35-205)", "T8 construct": "The source sentence prints 'Human TNF-from Peprotech'", "T8 sequence (looked up)": "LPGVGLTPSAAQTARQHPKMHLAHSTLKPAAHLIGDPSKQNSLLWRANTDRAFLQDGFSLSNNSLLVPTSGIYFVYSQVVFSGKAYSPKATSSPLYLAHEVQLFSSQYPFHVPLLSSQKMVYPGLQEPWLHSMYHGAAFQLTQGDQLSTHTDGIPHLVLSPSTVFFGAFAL", "experiment": "plate ELISA, cytokine coated", "experimental": "as §3, §4"}, "[7]": {"molecular_target": "T3, recombinant soluble human TL1A", "experiment": "plate ELISA, TL1A coated at 1 µg/mL, detection with anti-human IgG HRP", "experimental": "as §3, §4"}, "[8]": {"molecular_target": "T3, recombinant soluble human TL1A", "experiment": "plate ELISA, TL1A coated, antibody titrated; plate of TNFSF10", "experimental": "as §3, §4"}, "[9]": {"molecular_target": "T9, recombinant soluble murine TL1A (mouse, UniProt Q5UBV8 75-252)", "T9 construct": "also called murine rsTL1A; mouse TL1A", "T9 chain": "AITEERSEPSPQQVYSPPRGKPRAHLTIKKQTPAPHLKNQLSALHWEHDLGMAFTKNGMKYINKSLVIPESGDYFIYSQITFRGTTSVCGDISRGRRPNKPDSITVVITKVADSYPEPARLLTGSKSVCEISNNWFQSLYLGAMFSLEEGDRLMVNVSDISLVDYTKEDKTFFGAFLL", "experiment": "SPR, IgG captured on anti-hIgG, TL1A injected", "text": "as §1, §2"}, "[10]": {"molecular_target": "T4, endogenous TL1A of stimulated …", "experiment": "MSD ligand-binding assay of 1D1 1.31-free sTL1A in plasma of stimulated cynomolgus blood; lower end over the monkeys; lower end of range over 6 monkeys", "experimental": "Cynomolgus monkey peripheral blood treated with 1 ng/ml recombinant human IL-12 and 10 ng/ml recombinant human IL-18 was stimulated by immune complex coated plates for 24 hours at 37° C. […] Plasma was prepared from these samples and IFNγ was measured in the plasma samples by a quantitative immune-ligand binding assay using a Mesoscale (MSD) kit. […] Cynomolgus monkey peripheral blood treated with 1 ng/ml recombinant human IL-12 and 10 ng/ml recombinant human IL-18 was stimulated by immune complex coated plates for 24 hours at 37° C.\nFor IC and IL-12 and IL-18 stimulation, cynomolgus monkey blood was collected in sodium heparin coated tubes and used within one hour after the blood draw. Human IL-12 (1 ng/mL final concentration) and human IL-18 (10 ng/ml final concentration) were mixed in with blood prior to addition of 95 μL of the blood/IL-12/IL-18 mixture to each well of the IC coated plates."}},
  "data": [
    {"binder": "1D1 1.31 (antibody, human IgG1, kappa, V domains shown, Full length human IgG1 with effector function-null mutations in the Fc, produced in CHO cells; Used biotinylated for staining of monocytes) VH: QVQLVQSGAEVKKPGASVKVSCKASGYDFTYYGISWVRQAPGQGLEWMGWISTYNGNTHYARMLQGRVTMTTDTSTRTAYMELRSLRSDDTAVYYCARENYYGSGAYRGGMDVWGQGTTVTVSS VL: EIVLTQSPATLSLSPGERATLSCRASQSVSSYLAWYQQKPGQAPRLLIYDASNRATGIPARFSGSGSGTDFTLTISSLEPEDFAVYYCQQRSNWPWTFGQGTKVEIKR", "values": [
      {"measurement": "Kd", "setting": "[1]", "result": 0.361, "unit": "nM"},
      {"measurement": "koff", "setting": "[1]", "result": 0.00011, "unit": "s⁻¹"},
      {"measurement": "kon", "setting": "[1]", "result": 320000, "unit": "M⁻¹ s⁻¹"},
      {"measurement": "t1/2", "setting": "[1]", "result": 101, "unit": "min"},
      {"measurement": "Kd", "setting": "[2]", "result": 4.86, "unit": "nM"},
      {"measurement": "koff", "setting": "[2]", "result": 0.0026, "unit": "s⁻¹"},
      {"measurement": "kon", "setting": "[2]", "result": 540000, "unit": "M⁻¹ s⁻¹"},
      {"measurement": "t1/2", "setting": "[2]", "result": 4.38, "unit": "min"},
      {"measurement": "EC50", "setting": "[3]", "result": 0.0085, "unit": "ng/mL"},
      {"measurement": "Kd", "setting": "[4]", "result": "< 0.1", "unit": "nM"},
      {"measurement": "IC50", "setting": "[5]", "result": 0.000169, "unit": "nM"},
      {"measurement": "EC50", "setting": "[6]", "result": 0.0082, "unit": "ng/mL"},
      {"measurement": "binding result", "setting": "human TNFSF10 (TRAIL)", "result": "no binding (tested: 25 µg/mL highest antibody concentration)"},
      {"measurement": "binding result", "setting": "human TNFSF14 (LIGHT)", "result": "no binding (tested: 25 µg/mL highest antibody concentration)"},
      {"measurement": "binding result", "setting": "human Lymphotoxin α1-β2", "result": "no binding (tested: 25 µg/mL highest antibody concentration)"},
      {"measurement": "binding result", "setting": "human Lymphotoxin α2-β1", "result": "no binding (tested: 25 µg/mL highest antibody concentration)"},
      {"measurement": "binding result", "setting": "human TNF-α", "result": "no binding (tested: 25 µg/mL highest antibody concentration)"},
      {"measurement": "binding result", "setting": "human TNF-β", "result": "no binding (tested: 25 µg/mL highest antibody concentration)"},
      {"measurement": "EC50 (read off the curve)", "setting": "[7]", "result": "~8", "unit": "ng/mL"},
      {"measurement": "EC50", "setting": "[8]", "result": 0.008, "unit": "ng/mL"},
      {"measurement": "Kd", "setting": "[9]", "result": 1.06, "unit": "nM"},
      {"measurement": "koff", "setting": "[9]", "result": 0.00027, "unit": "s⁻¹"},
      {"measurement": "kon", "setting": "[9]", "result": 270000, "unit": "M⁻¹ s⁻¹"},
      {"measurement": "t1/2", "setting": "[9]", "result": 42.1, "unit": "min"},
      {"measurement": "IC50", "setting": "[10]", "result": 0.000114, "unit": "nM"}
    ]}
  ]
}
